Data on one protein can be found in article PMC11782487, “Cryo-EM structures reveal the H^+/citrate symport mechanism of Drosophila INDY” (Life Science Alliance, 2025).

This series concerns the molecule itself. Nature of the series: cryo-EM structure; purified INDY in MSP1 nanodiscs (E. coli polar lipids); apo at pH 6 and pH 8, with 5 mM citrate, or with 150 uM DIDS; homodimer in all seven structures.

The stoichiometry N is the number of molecules, sites or subunits per partner or assembly.

B1: Drosophila I'm Not Dead Yet (INDY) (natural protein)
chain: not shown
notes: I'm Not Dead Yet (INDY), Drosophila melanogaster, full-length gene, GenBank AF509505.1; 590 amino acids; Eluted from the anti-GFP resin by overnight thrombin cleavage; residues of the thrombin site may be left at the C-terminus; Regions of poor density were modelled as polyalanine in the deposited structures; also called WT INDY; apo INDY; not shown: eGFP, C-terminal, cleaved; His10, C-terminal, …
In the case of B1, the “stoichiometry N” value was 2.
